Test results taken from the supplement of paper PMC10567573.

B1: PLK2 (parent)
chain: YAELGQCSVFPATDAPEQFISQVT

Variants of: B1
Assay: protein stability index of a GFP-peptide fusion (GPS, HEK-293T) (PSI 1-6); higher = more stable
Details: c terminus: a fixed tail appended
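Also: lentivirally expressed fusions sorted by FACS into six bins by GFP to DsRed ratio, PSI derived from sequencing read proportions per bin multiplied by bin number.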

Variant | protein stability index
YAELGQCSVFPHTDAPEQFISQVT [A12H] | 1.93
YAELGQCSVFPTTDAPEQFISQVT [A12T] | 2.22
YAELGQCSVFPAGDAPEQFISQVT [T13G] | 2.32
YAELGQCSVFPAHDAPEQFISQVT [T13H] | 2.2
YAELGQCSVFPACDAPEQFISQVT [T13C] | 1.97
YAELGQCSVFPAVDAPEQFISQVT [T13V] | 2.2
YAELGQCSVFPASDAPEQFISQVT [T13S] | 2.37
YAELGQCSVFPALDAPEQFISQVT [T13L] | 1.92
YAELGQCSVFPAYDAPEQFISQVT [T13Y] | 1.62
YAELGQCSVFPANDAPEQFISQVT [T13N] | 2.5
YRELGQCSVFPATDAPEQFISQVT [A2R] | 3.6
YVELGQCSVFPATDAPEQFISQVT [A2V] | 2.15
YCELGQCSVFPATDAPEQFISQVT [A2C] | 1.92
YYELGQCSVFPATDAPEQFISQVT [A2Y] | 2.43
YWELGQCSVFPATDAPEQFISQVT [A2W] | 2.5
YPELGQCSVFPATDAPEQFISQVT [A2P] | 3.42
YKELGQCSVFPATDAPEQFISQVT [A2K] | 3.47
YFELGQCSVFPATDAPEQFISQVT [A2F] | 2.32
YAELGQCSVFPATDAPEQFISQVA [T24A] | 1.59
YAELGQCSVFPATDAPEQFISQVK [T24K] | 2.6
YAELGQCSVFPATDAPEQFISQVS [T24S] | 2.1
YAELGQCSVFPATDAPEQFISQVR [T24R] | 2.14
YAELGQCSVFPATDAPEQFISQVD [T24D] | 2.64
YAELGQCSVFPATDAPEQFISQVV [T24V] | 1.9

Variant | protein stability index
YAELGQCSVFPATDAPEQFISQVG [T24G] | 2.31
YAELGNCSVFPATDAPEQFISQVT [Q6N] | 2.28
YAELGWCSVFPATDAPEQFISQVT [Q6W] | 2.89
YAELGLCSVFPATDAPEQFISQVT [Q6L] | 2.03
YAELGYCSVFPATDAPEQFISQVT [Q6Y] | 1.95
YAELGCCSVFPATDAPEQFISQVT [Q6C] | 1.61
YAELGSCSVFPATDAPEQFISQVT [Q6S] | 2.42
YAELGRCSVFPATDAPEQFISQVT [Q6R] | 1.69
YAELGECSVFPATDAPEQFISQVT [Q6E] | 3.19
YAELGMCSVFPATDAPEQFISQVT [Q6M] | 1.54
YAEMGQCSVFPATDAPEQFISQVT [L4M] | 2.11
YAEYGQCSVFPATDAPEQFISQVT [L4Y] | 2.06
YAEIGQCSVFPATDAPEQFISQVT [L4I] | 2.5
YAEKGQCSVFPATDAPEQFISQVT [L4K] | 2.62
YAEQGQCSVFPATDAPEQFISQVT [L4Q] | 3.62
YAEDGQCSVFPATDAPEQFISQVT [L4D] | 3.96
YAESGQCSVFPATDAPEQFISQVT [L4S] | 2.86
YAELGQCSVIPATDAPEQFISQVT [F10I] | 2.87
YAELGQCSVCPATDAPEQFISQVT [F10C] | 3.07
YAELGQCSVVPATDAPEQFISQVT [F10V] | 3.52
YAELGQCSVHPATDAPEQFISQVT [F10H] | 3.43
YAELGQCSVWPATDAPEQFISQVT [F10W] | 2.96
YAELGQCSVSPATDAPEQFISQVT [F10S] | 3.61
YAELGQCSVNPATDAPEQFISQVT [F10N] | 3.43

Variant | protein stability index
YAELGQCSVTPATDAPEQFISQVT [F10T] | 3.47
YAELGQASVFPATDAPEQFISQVT [C7A] | 3.2
YAELGQKSVFPATDAPEQFISQVT [C7K] | 2.23
YAELGQGSVFPATDAPEQFISQVT [C7G] | 2.63
YAELGQCSVFMATDAPEQFISQVT [P11M] | 2.62
YAELGQCSVFTATDAPEQFISQVT [P11T] | 3.65
YAELGQCSVFKATDAPEQFISQVT [P11K] | 2.68
YAELGQCSVFAATDAPEQFISQVT [P11A] | 2.14
YAELGQCSVFWATDAPEQFISQVT [P11W] | 2.82
YAELGQCSVFPATDAPEQFISWVT [Q22W] | 2.09
YAELGQCSVFPATDAPEQFISRVT [Q22R] | 2.08
YAELGQCSVFPATDAPEQFISMVT [Q22M] | 1.73
YAELGQCSVFPATDAPEQFISFVT [Q22F] | 1.73
YAELGQCSVFPATDAPEQFISYVT [Q22Y] | 1.86
YAELGQCSVFPATDAPEQFISVVT [Q22V] | 2.81
YAELGQCSVFPATDAPEQFISTVT [Q22T] | 2.1
YAELGQCSVFPATDAPEQFISNVT [Q22N] | 2.31
YAELGQCSVFPATDAPEQFISHVT [Q22H] | 2.27
YAELGQCSVFPATDAPERFISQVT [Q18R] | 1.88
YAELGQCSVFPATDAPEFFISQVT [Q18F] | 2.15
YAELGQCSVFPATDAPETFISQVT [Q18T] | 2.13
YAELGQCSVFPATDAPENFISQVT [Q18N] | 2.73
YAELGQCSVFPATDAPELFISQVT [Q18L] | 2
YAELGQCSVFPATDAPEEFISQVT [Q18E] | 2.87

Variant | protein stability index
YAELGQCSVFPATDAPECFISQVT [Q18C] | 1.84
YAELGQCSVFPATDAPEMFISQVT [Q18M] | 2
YAELGQCSVFPATDAPEWFISQVT [Q18W] | 2.21
YAELGQCSVFPATPAPEQFISQVT [D14P] | 1.88
YAELGQCSVFPATAAPEQFISQVT [D14A] | 1.46
YAELGQCSVFPATLAPEQFISQVT [D14L] | 1.62
YAELGQCSVFPATYAPEQFISQVT [D14Y] | 2.56
YAELGQCSVFPATEAPEQFISQVT [D14E] | 2.05
YAELGQCSVFPATCAPEQFISQVT [D14C] | 1.86
YAELGQCSVFPATQAPEQFISQVT [D14Q] | 1.91
YAELGQCSVFPATNAPEQFISQVT [D14N] | 2.13
YAELGQCSVFPATVAPEQFISQVT [D14V] | 1.78
YAELGQCSVFPATKAPEQFISQVT [D14K] | 1.96
YAELGQCSVFPATFAPEQFISQVT [D14F] | 2.04
YAELGQCSVFPATDAYEQFISQVT [P16Y] | 1.79
YAELGQCSVFPATDADEQFISQVT [P16D] | 2.53
YAELGQCSVFPATDAEEQFISQVT [P16E] | 2.66
YAELGQCSVFPATDAHEQFISQVT [P16H] | 1.58
YAELGQCSVFPATDAGEQFISQVT [P16G] | 1.89
YAELGQCSVFPATDASEQFISQVT [P16S] | 2.33
YAELGQCSVFPATDAAEQFISQVT [P16A] | 1.8
YAELGQCSVFPATDAFEQFISQVT [P16F] | 1.64
